In PMC5358978, “Nuclear export receptor CRM1 recognizes diverse conformations in nuclear export signals” (eLife, 2017):

Molecular target: human CRM1 (HsCRM1), wild type (human) (UniProt O14980)
Test: differential bleaching; competition titration of MBP-NES to FITC-PKI NES and CRM1 with excess RanGTP; triplicate; fitted with a set of direct titrations

Sequence of human CRM1 (HsCRM1), wild type (human) (O14980 whole entry): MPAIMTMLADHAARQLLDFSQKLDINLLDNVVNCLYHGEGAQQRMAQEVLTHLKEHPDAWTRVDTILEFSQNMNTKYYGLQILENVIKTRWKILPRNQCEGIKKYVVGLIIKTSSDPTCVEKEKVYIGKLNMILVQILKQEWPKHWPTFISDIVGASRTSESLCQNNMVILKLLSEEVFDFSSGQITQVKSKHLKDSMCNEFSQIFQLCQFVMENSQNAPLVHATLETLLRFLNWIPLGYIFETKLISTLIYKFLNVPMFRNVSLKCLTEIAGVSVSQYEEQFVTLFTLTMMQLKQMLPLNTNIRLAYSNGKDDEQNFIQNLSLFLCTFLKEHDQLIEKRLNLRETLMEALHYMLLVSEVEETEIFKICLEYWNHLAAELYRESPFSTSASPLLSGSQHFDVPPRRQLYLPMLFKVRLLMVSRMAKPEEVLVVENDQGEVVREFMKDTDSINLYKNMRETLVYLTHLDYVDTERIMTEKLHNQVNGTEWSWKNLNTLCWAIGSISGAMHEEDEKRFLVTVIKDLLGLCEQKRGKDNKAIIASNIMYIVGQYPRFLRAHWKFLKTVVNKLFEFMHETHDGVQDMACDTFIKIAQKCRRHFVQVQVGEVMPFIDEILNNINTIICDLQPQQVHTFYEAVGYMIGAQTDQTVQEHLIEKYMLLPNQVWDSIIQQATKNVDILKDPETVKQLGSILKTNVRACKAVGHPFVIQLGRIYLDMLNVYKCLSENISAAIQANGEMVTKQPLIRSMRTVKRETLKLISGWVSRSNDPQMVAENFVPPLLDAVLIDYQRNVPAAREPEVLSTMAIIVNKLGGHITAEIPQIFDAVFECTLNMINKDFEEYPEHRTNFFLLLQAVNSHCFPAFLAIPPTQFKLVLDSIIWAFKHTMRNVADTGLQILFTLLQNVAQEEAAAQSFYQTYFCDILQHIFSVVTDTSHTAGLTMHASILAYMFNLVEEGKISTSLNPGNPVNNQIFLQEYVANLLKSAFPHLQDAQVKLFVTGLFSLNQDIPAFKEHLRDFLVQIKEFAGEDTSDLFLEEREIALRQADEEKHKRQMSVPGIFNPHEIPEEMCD

MBP-mDia2 NES(Φ0A) mutant (peptide)
Kd: 9.1 µM
